For series [1], the system named is CCK-2R. The series can be described thus: Competition studies in AR4-2J tumor-bearing CB17-SCID mice. Conditions: co-administration of excess unlabeled competitor (40 nmol), 24 h p.i. The class given is in vivo. The protocol: For competition studies, the radiolabeled compound (approx. 1-5 MBq, 100 pmol) was co-injected with [^natLu]Lu-DOTA-MGS5 (40 nmol) into the tail vein of AR4-2J tumor-bearing CB17-SCID mice and sacrificed at 1 to 24 h post injection (n = 2). Selected organs were removed, weighted and measured in a γ-counter.

Series [2] is described as follows: In vivo stability studies in murine serum and urine. More on the design: species or system CB17-SCID mice. As to conditions: 30 min p.i. The protocol: Stability studies were performed via injection of the ^177Lu-labeled peptide (approx. 35 MBq, 1 nmol) into the tail vein (n = 3) of anesthetized (2% isoflurane) CB17-SCID mice. At 30 min p.i. the mice were euthanized and a urine as well as a blood sample were taken. The urine sample was analyzed without further treatment. The blood sample was centrifuged at 5,000 rpm for 2 min. Afterwards, the serum was collected and ice-cold MeCN (1:1, v/v) as well as EtOH (1:2, v/v) were added. The sample was centrifuged at 5,000 rpm for 2 min once more and the supernatant was analyzed via RP-HPLC (10→30% in 5 min, 30→60% in 15 min, MeCN/H2O + 0.1% TFA).

For series [3], the target named is T1, Human serum albumin (HSA) (Homo sapiens, UniProt P02768).
T1 construct: purchased Daicel, Tokyo, Japan H13H-2433
T1 sequence (P02768 25-609): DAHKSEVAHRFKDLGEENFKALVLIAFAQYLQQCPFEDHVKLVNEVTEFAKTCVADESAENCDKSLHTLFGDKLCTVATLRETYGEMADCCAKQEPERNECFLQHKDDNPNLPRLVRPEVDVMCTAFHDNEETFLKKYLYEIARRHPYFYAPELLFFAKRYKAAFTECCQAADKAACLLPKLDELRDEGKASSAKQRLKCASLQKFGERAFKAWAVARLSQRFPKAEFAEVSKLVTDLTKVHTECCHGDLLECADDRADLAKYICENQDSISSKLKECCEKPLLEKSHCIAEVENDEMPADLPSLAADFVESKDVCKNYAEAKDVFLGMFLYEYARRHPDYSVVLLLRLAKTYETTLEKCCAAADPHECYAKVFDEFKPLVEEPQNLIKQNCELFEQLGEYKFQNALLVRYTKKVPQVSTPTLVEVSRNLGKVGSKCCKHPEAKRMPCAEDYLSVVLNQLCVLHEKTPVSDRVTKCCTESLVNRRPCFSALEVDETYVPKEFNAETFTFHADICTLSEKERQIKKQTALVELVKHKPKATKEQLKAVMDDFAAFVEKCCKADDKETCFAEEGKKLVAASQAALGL
The series can be described thus: Determination of HSA binding on a Chiralpak HSA column. The format is in vitro ADME. As to conditions: Tab. 8; metal not stated (Fig. 18: ^natLu). The method, boiled down:
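Retention on an HSA column with a 50 mM NH4OAc (pH 6.9)/isopropanol gradient at 0.5 mL/min, rt; samples run at 0.5 mg/mL in A/B (1/1). Binding derived by non-linear regression against nine reference compounds spanning 13 to 99% HSA binding.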

Series [4] in a line: Biodistribution in AR4-2J tumor-bearing CB17-SCID mice. Conditions: female, CB17-SCID, mouse, in vivo, iv, 100 pmol, total radioactivity, 100 pmol; for tissue uptake at 1 h: 1 h p.i.; for tissue uptake at 2 h: 2 h p.i.; for tissue uptake at 4 h: 4 h p.i. The class given is in vivo. The protocol:
All animal experiments were conducted in accordance with general animal welfare regulations in Germany (German animal protection act, in the edition of the announcement, dated May 18th, 2006, as amended by Article 280 of June 19th 2020, approval no. ROB-55.2-1-2532.Vet_02-18-109 by the General Administration of Upper Bavaria) and the institutional guidelines for the care and use of animals. CB17-SCID mice of both genders (Charles River Laboratories International Inc., Sulzfeld, Germany) were let to acclimate at the in-house animal facility at least for one week before inoculation was performed. To establish tumor xenografts, AR4-2J cells (5.0 × 10^6 cells per 200 µL) were suspended in a 1/1 mixture (v/v) of Dulbecco modified Eagle medium / Nutrition Mixture F-12 with Glutamax-I (1/1) and Cultrex® Basement Membrane Matrix Type 3 (Trevigen, Gaithersburg, MD, USA) and inoculated subcutaneously onto the right shoulder of 6-10 weeks old CB17-SCID mice (Charles River, Sulzfeld, Germany). Mice were used for experiments when tumors had grown to a volume of 150-300 mm^3 (1-2 weeks after inoculation). Exclusion criteria for animals from an experiment were either a weight loss higher than 20%, a tumor size above 1,500 mm^3, an ulceration of the tumor, a respiratory distress or a change of behavior. None of these criteria applied to any animal from the experiment. Neither randomization nor blinding was applied in the allocation of the experiments. Health status is SPF according to FELASA.
Approximately 1-5 MBq (100 pmol) of the radiolabeled minigastrin analogues were injected into the tail vein of AR4-2J tumor-bearing female CB17-SCID mice and sacrificed at 1 to 24 h post injection (n = 4-5). Selected organs were removed, weighted and measured in a γ-counter.

Series [5] is described as follows: n-Octanol-PBS distribution coefficient (logD7.4). The class given is physicochemical. Conditions: pH = 7.4, ^177Lu-labeled. The protocol: Approximately 1 MBq of the labeled tracer was dissolved in 1 mL of a 1/1 mixture (v/v) of phosphate buffered saline (PBS, pH = 7.4) and n-octanol in an Eppendorf tube (1.5 mL). After vigorous mixing of the suspension for 3 min at rt, the vial was centrifuged at 9,000 rpm for 5 min (Biofuge 15, Heraeus Sepatech, Osterode, Germany) and 200 µL aliquots of both layers were measured in a γ-counter. The experiment was repeated at least five times.

Where [6] appears, read: read-out: activity levels in the blood.
[7] abbreviates: read-out: activity levels in the tumor.

Where two headings read alike, the source gives them in different places. Starred links: 1 amine or outer side, 2 acyl side, 3 side chain; linkers in the order of their positions; H or OH if unused. Non-standard residues stand in square brackets, D forms with d. Residues, ends and D or L forms follow the SMILES beside them. *: point of attachment. Benzoyl(4-SiFtBu2) = CC(C)(C)[Si](F)(c1ccc(C(=O)*)cc1)C(C)(C)C; DOTA = O=C(O)CN1CCN(CC(=O)O)CCN(CC(=O)*)CCN(CC(=O)O)CC1; d(γGlu) = O=C(O)[C@@H](CCC(=O)[*:2])N[*:1]; 1Nal = N[C@@H](Cc1cccc2ccccc12)C(=O)O; Hyp = O=C(O)[C@@H]1C[C@@H](O)CN1; NMeNle = CCCC[C@H](NC)C(=O)O; PEG4 = NCCOCCOCCOCCOCCC(=O)O; dDap = NC[C@@H](N)C(=O)O Bounds are passed on as bounds.

Consider `CCCC[C@@H](C(=O)N[C@@H](CC(=O)O)C(=O)N[C@@H](Cc1cccc2ccccc12)C(N)=O)N(C)C(=O)[C@H](Cc1c[nH]c2ccccc12)NC(=O)CCOCCOCCOCCOCCNC(=O)CC[C@@H](NC(=O)[C@@H]1C[C@@H](O)CN1C(=O)[C@@H]1C[C@@H](O)CN1C(=O)[C@@H]1C[C@@H](O)CN1C(=O)[C@@H]1C[C@@H](O)CN1C(=O)[C@@H]1C[C@@H](O)CN1C(=O)[C@@H]1C[C@@H](O)CN1C(=O)CC[C@@H](NC(=O)[C@@H](CNC(=O)c1ccc([Si](F)(C(C)(C)C)C(C)(C)C)cc1)NC(=O)CN1CCN(CC(=O)O)CCN(CC(=O)O)CCN(CC(=O)O)CC1)C(=O)O)C(=O)O` [DOTA-rhCCK-84, DOTA-dap(SiFA)-γ-glu-(Hyp)6-γ-glu-(PEG)3-Trp-(N-Me)Nle-Asp-1-Nal-NH2] ({DOTA}-[dDap](Benzoyl(4-SiFtBu2))[d(γGlu)][Hyp][Hyp][Hyp][Hyp][Hyp][Hyp][d(γGlu)][PEG4]W[NMeNle]D[1Nal]-NH2), for which the “activity levels in stomach and tumor in competition studies (CCK-2R specificity)” value in series [1] is “significantly decreased activity levels in both stomach and tumor”. For the same compound, in series [2] (murine serum), the “in vivo stability in the serum (intact compound)” value is on record as 93.5 ± 2.1%. The “in vivo stability in the urine (intact compound)” value in series [2] (murine urine) amounted to 55.4 ± 9.0%. The “HSA binding [%]” value in series [3] was 90.0%. For the same compound, the tissue uptake at 1 h amounted to 11.3 ± 1.3 %ID/g in series [4] (setting [6]) and 36.3 ± 3.7 %ID/g in series [4] (read-out: tumor uptake). Also, the tissue uptake at 2 h is 3.71 ± 0.46 %ID/g in series [4] (setting [6]) and 35 ± 2.9 %ID/g in series [4] (setting [7]). Moreover, the tissue uptake at 4 h in series [4] (setting [6]) was 1.14 ± 0.18 %ID/g; in series [4] (setting [7]) it was 34 ± 3.6 %ID/g. Moreover, the tissue uptake at 24 h in series [4] (24 h p.i., read-out: activity levels in the kidneys) was under 10 %ID/g. Further, the “logD7.4 (n ≥ 5), ^177Lu-labeled” value in series [5] and in series [5] (listed as [^nat/177Lu]Lu-DOTA-rhCCK-84) was -2.14 ± 0.06 throughout.

For the origin of these results see EP4631959A2, “NOVEL MINIGASTRIN-DERIVED CHOLECYSTOKININ 2 RECEPTOR BINDING MOLECULES FOR IMAGING AND TARGETED RADIOTHERAPY” (priority 2022, dated 2024).
